# Laboratory results published in the supplement of paper PMC12042874.
# ± gives the uncertainty stated by the source.
# Assay: amyloid nucleation score (Sup35N fusion, yeast selection) (log enrichment); library NNK2; higher = more nucleation; inactive = no reads after selection
# Method in brief: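 Three technical output replicates were used for random libraries. Psi-negative yeast expressing peptides of 20 random codons fused to Sup35N were induced with 100 μM copper sulfate for 24 hours and grown 7 days at 30°C on medium lacking adenine and uracil, and input and output plasmid inserts were Illumina-sequenced, excluding sequences with under 100 input reads. The nucleation score is the DiMSum log enrichment of output over input reads, centred on the mode score of non-aggregating sequences.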
row,Substance,amyloid nucleation score
1,LMFTCVMSFWRLSVRVILNY,0.277 ± 0.41
2,IPRIRR,0.622 ± 0.66
3,LFDGASMSRRIVMWDMGWWG,4.54 ± 0.046
4,PTSWFRSNMKWFYPVSQPHW,-0.434 ± 0.64
5,ALLVILLDCLQFIYMTELNC,-0.032 ± 1.1
6,EKWLGLFKTYAESFDSCCLG,-0.581 ± 0.29
7,ICLDLCNMKLEKGLS,-1.55 ± 1
8,MYYASIIEKYLYRNDLVGVG,0.269 ± 0.33
9,LRYSTSHSKNRRSDALNIKG,-0.739 ± 0.45
10,MKSNSLSGRCSQFHLES,-0.184 ± 1.1
11,FIRSIHCVKMDELAWLLSVS,0.252 ± 0.46
12,LQSRWCRVKETWQS,1.66 ± 0.32
13,MVSCRN,0.237 ± 1
14,VDRYLSHCVGKGLDF,-0.55 ± 0.56
15,VCFNWRHYATRLSDERWLRS,1.1 ± 0.52
16,FALREYGYLSSYYFCMGGPT,3.56 ± 0.094
17,NSYFGRAFNVSMPYKLRWKF,-1.41 ± 1.1
18,WRCGVVFRDEYCYRGNRTFK,-0.675 ± 0.26
19,QTTVHLTSLHMAGSLCV,-0.021 ± 0.79
20,TVGIVGFHVVVRELWVGVRR,6.868 ± 0.066
21,IYLGVCYFSALGRDFMSKWW,1.77 ± 0.15
22,STDYMGPAY,-0.617 ± 0.37
23,ECVLMTGTMWSTSSALW,0.877 ± 0.53
24,YKSYSNPVLHHYSSLIPGPN,-0.001 ± 0.41
25,RIYFGQIRGDW,4.04 ± 0.12
26,FSFYLGRKSMRWCNSCWYSW,-0.445 ± 0.22

row,Substance,amyloid nucleation score
1,IQLDRSYSHNTSSLQGWHTM,0.062 ± 0.74
2,SKPWKYNRFYLESSEWSSFC,1.47 ± 0.3
3,GVLDRFPDESNILGVSFSCL,-0.575 ± 0.26
4,VSNKDVLSQDMAKLIWW,0.81 ± 0.22
5,IGVSLTYKIQVSTRLFSTLY,3.29 ± 0.15
6,FASVLLCSIRRALGRVVRPL,0.144 ± 0.55
7,GIPMSSPNGLDTYSTPMH,2.63 ± 0.074
8,FGYKR,-0.828 ± 0.61
9,SYIWSECRTNMIVWASNTLK,3.81 ± 0.063
10,EEMMSRYSLTVKML,0.391 ± 0.34
11,FESRFYHSVLTIVTLFTYPA,-0.025 ± 1.1
12,RCSTFFEYSQTIPHYLVTLF,-0.91 ± 0.44
13,NVFLRPSFRGVHK,2.05 ± 0.092
14,MCQDGCHGFLVTADQPQSGA,-0.148 ± 0.42
15,WLDLTYFFSRLGVDVISLQ,-0.468 ± 0.48
16,SYGFFMVWIEGYFLVMASRI,inactive
17,KMSMSFSWWE,3.51 ± 0.068
18,ASGNRTFVVMLLNRRKMMST,0.008 ± 0.48
19,LDTVPTWFYQVMWGYDWVLK,2.81 ± 0.11
20,IRKRCGINGMYRWIWVTWYL,-1.12 ± 0.33
21,LSLVYRIGLNCNRELSSFDW,2.33 ± 0.1
22,NELVSLQVIWIF,-0.098 ± 0.79
23,GLRRVKFYIKVIFAKSSLVI,-1.84 ± 0.49
24,ITKPLVALKNGYMVL,-0.177 ± 0.56
25,HKQRSSASKSV,-0.321 ± 0.39
26,RPKLGSSVVRHVMFIGWGCG,0.797 ± 0.43

row,Substance,amyloid nucleation score
1,TFFDGSCLVRLSWAQLEFLT,-0.471 ± 0.41
2,SFYLLCLSFMSLCWASRLVV,4.83 ± 0.073
3,YTYSYATLNMWFQLT,6.59 ± 0.033
4,FYKREVIFVLRLFFTVKQGR,-1.73 ± 1.1
5,RLILFAMTVLLASRGYNVRS,0.402 ± 0.21
6,TLYRPMTIMFMRVHHEVRWF,6.195 ± 0.04
7,QSTFFCTLQLGSKYFKECLS,-1.22 ± 0.61
8,YYEYGL,-0.298 ± 0.4
9,GISVICLYGVQYSDVGGVNL,5.098 ± 0.043
10,VKFWYWAVDLDSCVRCGDGA,6.586 ± 0.049
11,NKLPDSFRSALSFY,inactive
12,CATSISMLEHQ,0.556 ± 0.2
13,EDEWMHLVRVQFQGKDRKAA,0.92 ± 0.28
14,AGPSCL,0.537 ± 0.22
15,YSGFLRCLAYALI,0.061 ± 0.8
16,LPHCL,1.36 ± 0.24
17,FIFRMHAFNGIRLWCV,1.38 ± 0.22
18,LTCRTFYNNCVNEWSLHLSL,4.07 ± 0.072
19,YEISSLRSFRSVLNWYMSGS,4.6 ± 0.052
20,TCLAKLLFCKSTSKDRV,0.063 ± 1.1
21,GVCLSGACAGISGGADYSGR,0.332 ± 0.22
22,FLCLLDRVIMTLFFRIAL,0.453 ± 0.65
23,SLNPTRSWMRFNINKAHFLL,-0.204 ± 0.48
24,LTSSSSSQVWGLYVYDGHLK,-0.045 ± 0.38
25,NLMCTACILDQWRHCKLVWN,4.15 ± 0.091
26,KRFAIPEHTLTTYRQLA,0.082 ± 0.42

row,Substance,amyloid nucleation score
1,PLHRWLQDR,-0.037 ± 0.79
2,YNCLRMELVLSHKGDLTLM,5.25 ± 0.091
3,GARASQRCESVGLPLEYVSR,0.974 ± 0.29
4,SECMIRFVNYADGTFNIGHS,-0.22 ± 0.37
5,SCMLFEAAYPRVYMYWSRRF,-1.91 ± 0.75
6,MSNMVSSMGSRMFLIICVVS,0.68 ± 0.4
7,YKFSPIHNSRCLNSLHWPKA,0.439 ± 0.74
8,QSFNGS,-1.2 ± 0.54
9,SCFGRKLLLLDGA,0.203 ± 0.28
10,SFHSCNVS,-0.363 ± 0.74
11,VGINLSSATGMFEGKIQDNA,-0.757 ± 0.37
12,DWVINS,-0.462 ± 0.78
13,CVFAHFCCLFASMMPCKFSW,-0.127 ± 1
14,SNVSKYTKRGDM,-0.184 ± 0.33
15,VFASMFILFYV,3.46 ± 0.07
16,ILICKILKTRMKVSRDMVMK,inactive
17,VLGNGYPD,-0.19 ± 1.1
18,RSSSNWSTSGGILRYVVLPK,-0.151 ± 0.42
19,HLSYILGVGMFNVHHDNGFF,2.5 ± 0.2
20,WARFEKV,inactive
21,NYVCWISGTTGLVM,-0.319 ± 0.76
22,VPSFRYCTSYQTATSLR,0.17 ± 0.33
23,CRFLRA,-0.051 ± 0.79
24,KWCPLFKGSIGFSFLVHTMK,-1.26 ± 1.1
25,IMSNGDRNAYYVKLHES,0.123 ± 0.33
26,VLNSPVFFHSYRSMVSLM,-0.117 ± 0.3

row,Substance,amyloid nucleation score
1,HVLYDCMGVIIKSCHYLDLC,-0.508 ± 0.37
2,TVVGSLSVVF,1.47 ± 0.38
3,VLVFEVPFMFNGAFTMGCIR,7.075 ± 0.067
4,CVILDWSVVCFMELVINSRS,3.21 ± 0.065
5,YFSSTYLRQGIFWCFRMSRL,-0.43 ± 1.1
6,KYSVMLALLEPIRWTWLIQF,0.323 ± 0.62
7,DMTVLYCMFCSLSWQINCFR,0.838 ± 0.25
8,TVSNPGMPNAI,-0.557 ± 0.64
9,GCNRQMSARK,4.29 ± 0.044
10,MWTLLVKSTKGAHGQYSVMH,0.397 ± 0.22
11,YSFLHVIGANKFARACNNWS,-0.565 ± 0.78
12,RYVYRTVGWHQFLCGTVLFW,0.588 ± 0.16
13,HFNSLVSGQYMWSSGKSLVP,4.01 ± 0.061
14,YEHVIGVWYLGCQGGWVGDH,0.354 ± 0.29
15,IAVSMNEMGY,inactive
16,RECLRLDGGPMNWV,0.192 ± 1
17,FTIALIYTFLLISCLLGMSV,0.164 ± 1.1
18,NTRCRSVTLMLGFSMESKVH,0.76 ± 0.54
19,LHGQVYMIQG,2.17 ± 0.13
20,YYLVV,-0.614 ± 0.56
21,RCRPFFPRNVFSRVENIYHA,-0.602 ± 1.1
22,DGFRGLGLFHTY,-0.561 ± 0.31
23,GDGSRS,0.813 ± 0.23
